Test results from PMC3333885 (Nucleic Acids Research, 2011).

Key:
Experiment in all cases: peptide array
[1] = target: T1, EcoP15I Res peptide 531-550 (spot F7) (UniProt Q5ZND2 531-550)
T1 chain: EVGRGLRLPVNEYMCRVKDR

[2] = target: T2, EcoP15I Res strongest DNA-binding region (array peptides) (UniProt Q5ZND2 637-670)
T2 chain: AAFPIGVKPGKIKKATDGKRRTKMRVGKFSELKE

[3] = target: T3, EcoP15I Res peptide 126-145 (spot B6) (UniProt Q5ZND2 126-145)
T3 chain: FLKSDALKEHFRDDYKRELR

B1: KW30-1/KW30-1c, specific dsDNA (dsDNA)
DNA 1: CGTAATCGTACCCAGCAGATATCGGTACCG
DNA 2: CGGTACCGATATCTGCTGGGTACGATTACG
B1: no binding [1]; binds [2]; no binding [3].
